Earlier results as cited in patent US11407822B2, “Treatment of fibrodysplasia ossificans progressiva” (REGENERON PHARMACEUTICALS, INC., priority 2014, dated 2022).

What was measured:
[1] = target: T1, Activin A binding to ACVR2A or ACVR2B (Homo sapiens, UniProt P08476); details: as described for the antibody in US2015/0037339 or U.S. Pat. No. 8,309,082
T1 sequence (P08476 311-426): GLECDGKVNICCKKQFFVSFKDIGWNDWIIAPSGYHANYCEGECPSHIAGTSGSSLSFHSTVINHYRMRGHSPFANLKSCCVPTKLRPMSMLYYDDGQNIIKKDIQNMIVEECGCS

[2] = test system: Activin A mediated signaling through ACVR2A and/or ACVR2B; details: as described for the antibody in US2015/0037339 or U.S. Pat. No. 8,309,082

B1: H4H10430P: Antibody against Activin A designated H4H10430P in US2015037339; heavy and light chain variable regions present SEQ ID NOs:9 and 13 (antibody, V domains shown)
VH: EVQLVESGGGLVQPGRSLRLSCKASGFAFDDFAMHWVRQAPGKGLEWVSGIVWNSGDIGYADSVKGRFTISRDNAKNSLYLQLNSLRTEDTALYFCVKDMVRGLMGFNYYGMDVWGQGTTVTVSS
VL: EIVLTQSPATLSLSPGERATLSCRASQTISTYLVWYRQRPGQAPSLLIYDASNRATDIPARFSGSGSGTDFTLTISSLEPEDFAVYYCQQRSNWPITFGQGTRLEIK
- inhibition of Activin A binding to ACVR2A and/or ACVR2B [1]: inhibits binding of Activin A to ACVRV2A and/or ACVR2B
- inhibition of Activin A signal transduction through ACVR2A and/or ACVR2B [2]: inhibits signal transduction through one or both of these receptors
